Measurements from patent US20250051435A1 (INVETX, published 2025).
Residue numbers refer to the chain shown, from its start. Names may count otherwise.

Assays:
[1] = molecular target: T1, feline IL-5 (Kingfisher Biotech; RP1152F) (feline, UniProt O77515 20-134); test: ELISA, Fab culture supernatant on plate-coated feline IL-5, anti-feline Fab'2-HRP detection
T1 construct: Bought recombinant protein; also called fIL-5; fIL5
T1 sequence (looked up): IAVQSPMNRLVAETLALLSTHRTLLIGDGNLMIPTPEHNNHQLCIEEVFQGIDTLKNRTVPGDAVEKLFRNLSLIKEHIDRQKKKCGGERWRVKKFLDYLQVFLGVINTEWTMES
Source text: Fragments containing the pre-selected CDR pools from these libraries were randomly paired by overlap PCR to create a new library incorporating mutations throughout all targeted CDRs. The phage propagated following round 4 of selection were used for PCR amplication of LCDR2, LCDR3 and HCDR3. The PCR-amplified fragment containing the light chain and the heavy chain were ligated into a phagemid vector and transformed into E. coli. The number of transformants was approximately 2E+10. Library plasmid DNA was purified using a midi-prep purification method. Ten pg of the library plasmid DNA was transformed into E. coli for growth and propagation of the Fab phage. After overnight phage production, phage was precipitated from the culture supernatant and resuspended in blocking buffer (1% BSA/PBS). The phage were treated at 58° C. for 10 minutes to remove unstable clones prior to the selections. The input phage was incubated for 30 minutes in a blocked ELISA plate coated with feline IL-5. The ELISA plate was washed with PBS, pH 7.4 followed by acid elution of the bound phage. The output phage was then used to infect E. coli for propagation for the next round of selection. For rounds 1, 2, 3 and 4, the ELISA plates were coated with 10 μg/ml, 8 μg/ml, 5 μg/ml and 1 μg/ml, respectively. The number of washes after each round were 3, 5, 10 and 10 for rounds 1, 2, 3 and 4, respectively. Ninety-three clones from the round 4 output were grown overnight for Fab production and tested for binding to feline IL-5 in an ELISA format. For this assay, supernatants from the overnight cultures were incubated in Immulon 4 HBX high-binding plate that was coated with 10 μg/ml feline IL-5 (Kingfisher Biotech; Cat #RP1152F) and blocked with 1% bovine serum albumin in phosphate buffered saline (PBS), pH 7.4. The controls added included the MtxB clone and clone 1H3-C6 which was the top affinity clone from the first stage A1 step. The Fab binding to the feline IL-5 was detected with anti-feline Fab′₂-HRP conjugate.
The results are shown in Table 8A which compares relative Fab binding affinity to feline IL-5 by Fabs disclosed herein. IL-5 binding was detected with anti-feline Fab′₂-HRP conjugate. Differences in CDR amino acids compared to the MtxB are underlined. The data in the last column are absorbance following addition of substrate to detect the HRP conjugate.

[2] = molecular target: T1, feline IL-5 (Kingfisher Biotech; …); test: ELISA on plate-coated feline IL-5, Fab at 65 ng/ml dimerized with goat anti-feline IgG F(ab')2, anti-goat-HRP detection
[3] = molecular target: T1, feline IL-5 (Kingfisher Biotech; …); test: SPR Biacore T200, IgG captured on goat anti-feline IgG CM5 chip, feline IL-5 as analyte
Source text: Asparagine deamidation for asparagine residues and oxidation at methionine residues can negatively impact the potency and the stability of an antibody (Xu et al., 2019. MABS, 11:239-264). These post-translational modifications can be particularly problematic when they reside in the CDRs. […] DNA constructs were synthesized (GeneArt) encoding the MtxB clone with substitutions to eliminate the potential sequence liabilities. For the NG site in LCDR3, the Asn (position 106) was substituted with either a Gln or a Ser and for the Met in HCDR3 (position 115), a Len was substituted. The DNA constructs with the light chain variants were fused to the feline kappa constant domain. These DNA constructs were subcloned into the pcDNA3.4 expression vector (ThermoFisher) and expressed with the ExpiCHO system (ThermoFisher). The antibodies were purified with mAbSelect SuRe chromatography (Cytiva) and buffer exchanged into 20 mM sodium acetate, 136 mM sodium chloride, pH 5.5. The variants were tested in an SPR experiment using a Biacore T200 instrument to measure their affinity to feline IL-5 (Kingfisher Biotech; RP1152F). Goat anti-feline IgG was immobilized onto a Series S CM5 sensor chip (Cytiva) and the original MtxB clone and the variants containing the amino acid substitutions were captured on the chip at 5 μg/ml.

B1: 1H3-C6 Fab (MtxB HCDR3 variant) (Fab, V domains shown)
VH: DVQLVESGGDLVKPGGSLRLTCVGSGFTFSNYAMSWVRQAPGEGLQWVATIGSGGHYTYHPDSVKGRFTISRDNAKNTLYLQMNSLQTEDTASYYCTRETDGYGPMDVWGQGTLVTVSS
VL: DIVMTQTPLSLSVTPGEPASISCRASQSISDYLYWYLQKPGQSPRRLIYYASQSISGVPDRFSGSGSGTDFTLRISRVEADDVGVYYCQNGHSFPYTFGPGTKLEIK
notes: Fab from the MtxB HCDR3 library; the entry named is the parent, the changed CDR is told under detail
fIL5 Fab (ELISA absorbance) [1]: 0.1 absorbance
Normalized fIL-5 ELISA value, 65 ng/ml Fab [2]: 0.967

B2: LxH3-D3 Fab (affinity matured MtxB) (Fab, V domains shown)
VH: B1 VH with M106I, D107L, V108D
VL: B1 VL with R46L, I48F, Y49N, Y50V, A51L, S54R, I55S, N90Q, H92L, S93V
notes: Fab from the Stage B library on MtxB; the entries named are the parent, the changed regions are told under detail
fIL5 Fab (ELISA absorbance) [1]: 1.28 absorbance

B3: LxH3-D9 Fab (affinity matured MtxB) (Fab, V domains shown)
VH: B1 VH with M106I, D107L, V108D
VL: DIVMTQTPLSLSVTPGEPASISCRASQSISDYLYWYLQKPGQSPRLIINYGSVLLSGVPDRFSGSGSGTDFTLRISRVEADDVGVYYCQQGLLFPYTFGPGTKLEIKR
notes: as for B2
fIL5 Fab (ELISA absorbance) [1]: 1.13 absorbance

B4: LxH3-D6 Fab (affinity matured MtxB) (Fab, V domains shown)
VH: B1 VH with M106I, D107L, V108D
VL: B3 VL with L46R, I47V, N49Y, Y50T, V53Q, L54R, L55S, L93V
notes: as for B2
fIL5 Fab (ELISA absorbance) [1]: 0.708 absorbance

B5: LxH3-A9 Fab (affinity matured MtxB) (Fab, V domains shown)
VH: B1 VH with M106L, V108L
VL: B3 VL with L46R, N49F, Y50T, V53Q, L54R, L55N, L92M, L93V
notes: as for B2
fIL5 Fab (ELISA absorbance) [1]: 0.722 absorbance

B6: 2L2-G12 Fab (MtxB LCDR2 variant) (Fab, V domains shown)
VH: B1 VH with G104D, P105G, V108Y
VL: B1 VL with L47V, I48F, Y49F, Y50T, A51P, Q53D, I55A
notes: Fab from the MtxB LCDR2 library
Normalized fIL-5 ELISA value, 65 ng/ml Fab [2]: 0.251

B7: LxH3-B10 Fab (affinity matured MtxB) (Fab, V domains shown)
VH: B1 VH with M106I, D107L, V108D
VL: B3 VL with L46R, I47L, N49F, Y50T, V53Q, L54R, L55A, L92V, L93R
notes: as for B2
fIL5 Fab (ELISA absorbance) [1]: 0.702 absorbance

B8: LxH3-G4 Fab (affinity matured MtxB) (Fab, V domains shown)
VH: B1 VH with V108L
VL: B3 VL with L46R, I47L, N49Y, Y50F, V53L, L55S
notes: as for B2
fIL5 Fab (ELISA absorbance) [1]: 0.545 absorbance

B9: 1L2-H7 Fab (MtxB LCDR2 variant) (Fab, V domains shown)
VH: B1 VH with G104D, P105G, V108Y
VL: B1 VL with L47V, I48F, Y49F, Y50T, A51V, Q53G, S54G, I55V
notes: Fab from the MtxB LCDR2 library; the entry named is the parent, the changed CDR is told under detail
Normalized fIL-5 ELISA value, 65 ng/ml Fab [2]: 0.283

B10: 1L2-D12 Fab (MtxB LCDR2 variant) (Fab, V domains shown)
VH: B1 VH with G104D, P105G, V108Y
VL: B1 VL with L47I, I48F, Y49F, Y50G, A51Y, Q53G, S54T, I55K
notes: as for B9
Normalized fIL-5 ELISA value, 65 ng/ml Fab [2]: 0.303

B11: LxH3-F11 Fab (affinity matured MtxB) (Fab, V domains shown)
VH: B1 VH with M106I, D107L, V108D
VL: DIVMTQTPLSLSVTPGEPASISCRASQSISDYLYWYLQKPGQSPRRVFFHSSYRQSGVPDRFSGSGSGTDFTLRISRVEADDVGVYYCQQGMLFPFTFGPGTKLEIKR
notes: as for B2
fIL5 Fab (ELISA absorbance) [1]: 0.782 absorbance

B12: MtxB N106S (LCDR3) variant (antibody, V domains shown)
VH: B1 VH with G104D, P105G, V108Y
VL: B1 VL with N90S
notes: Feline IgG with feline kappa constant domain
Kd [3]: 3.6 nM
koff [3]: 0.00027 s⁻¹
kon [3]: 75000 M⁻¹ s⁻¹

B13: LxH3-F3 Fab (affinity matured MtxB) (Fab, V domains shown)
VH: B1 VH with M106L, V108L
VL: DIVMTQTPLSLSVTPGEPASISCRASQSISDYLYWYLQKPGQSPRLLFNSVSPTRSGVPDRFSGSGSGTDFTLRISRVEADDVGVYYCQQGVVFPYTFGPGTKLEIK
notes: as for B2
fIL5 Fab (ELISA absorbance) [1]: 1.16 absorbance

B14: LxH3-G10 Fab (affinity matured MtxB) (Fab, V domains shown)
VH: B1 VH with M106I, D107L, V108D
VL: B3 VL with L46R, N49F, Y50T, V53Q, L54R, L55N, L92A, L93F
notes: as for B2
fIL5 Fab (ELISA absorbance) [1]: 0.877 absorbance

B15: LxH3-G7 Fab (affinity matured MtxB) (Fab, V domains shown)
VH: B1 VH with M106I, D107L, V108D
VL: B3 VL with I47V, I48F, Y50H, G51A, V53P, L54V, L55P, L92I, L93R
notes: as for B2
fIL5 Fab (ELISA absorbance) [1]: 0.672 absorbance

B16: LxH3-F4 Fab (affinity matured MtxB) (Fab, V domains shown)
VH: B1 VH with D107L, V108D
VL: B3 VL with I47L, I48F, L55A, L92Y
notes: as for B2
fIL5 Fab (ELISA absorbance) [1]: 0.738 absorbance

B17: LxH3-G2 Fab (affinity matured MtxB) (Fab, V domains shown)
VH: B1 VH with M106L, V108L
VL: B3 VL with I47V, Y50W, V53Q, L54R, L55A, L92A, L93I
notes: as for B2
fIL5 Fab (ELISA absorbance) [1]: 0.653 absorbance

B18: LxH3-F12 Fab (affinity matured MtxB) (Fab, V domains shown)
VH: B1 VH with M106L, V108L
VL: B3 VL with I48F, Y50P, G51L, L54R, L55R, L92Y, L93V
notes: as for B2
fIL5 Fab (ELISA absorbance) [1]: 0.513 absorbance

B19: MtxB N106Q (LCDR3) variant (antibody, V domains shown)
VH: B1 VH with G104D, P105G, V108Y
VL: B1 VL with N90Q
notes: as for B12
Kd [3]: 0.56 nM
koff [3]: 8.6e-05 s⁻¹
kon [3]: 150000 M⁻¹ s⁻¹

B20: LxH3-D1 Fab (affinity matured MtxB) (Fab, V domains shown)
VH: B1 VH with M106I, D107L, V108D
VL: B3 VL with L46R, I47L, N49Y, Y50F, L54R, L55S, L93Q
notes: as for B2
fIL5 Fab (ELISA absorbance) [1]: 1.01 absorbance

B21: 1L2a-H2 Fab (MtxB LCDR2 variant) (Fab, V domains shown)
VH: B1 VH with G104D, P105G, V108Y
VL: B1 VL with L47V, I48F, Y50T, A51D, Q53A, S54E, I55V
notes: as for B9
Normalized fIL-5 ELISA value, 65 ng/ml Fab [2]: 0.559

B22: 1L2-E7 Fab (MtxB LCDR2 variant) (Fab, V domains shown)
VH: B1 VH with G104D, P105G, V108Y
VL: B1 VL with L47I, I48F, Y49F, Y50A, A51S, Q53L, S54Y, I55D
notes: as for B9
Normalized fIL-5 ELISA value, 65 ng/ml Fab [2]: 0.366

B23: 1L2-D1 Fab (MtxB LCDR2 variant) (Fab, V domains shown)
VH: B1 VH with G104D, P105G, V108Y
VL: B1 VL with L47I, I48F, Y49F, Y50T, A51E, S54R, I55A
notes: as for B9
Normalized fIL-5 ELISA value, 65 ng/ml Fab [2]: 0.492

B24: LxH3-F5 Fab (affinity matured MtxB) (Fab, V domains shown)
VH: B1 VH with M106L, V108L
VL: B3 VL with Y50P, G51M, V53G, L54Q
notes: as for B2
fIL5 Fab (ELISA absorbance) [1]: 1.04 absorbance

B25: LxH3-B6 Fab (affinity matured MtxB) (Fab, V domains shown)
VH: B1 VH with M106I, D107L, V108D
VL: B3 VL with I48F, Y50P, G51L, L54R, L55R, L92M, L93V
notes: as for B2
fIL5 Fab (ELISA absorbance) [1]: 0.972 absorbance

B26: LxH3-E2 Fab (affinity matured MtxB) (Fab, V domains shown)
VH: B1 VH with M106I, D107L, V108D
VL: B3 VL with L46R, I48F, Y50H, G51L, V53P, L54S, L55S, L92S, L93V
notes: as for B2
fIL5 Fab (ELISA absorbance) [1]: 0.809 absorbance

B27: LxH3-E8 Fab (affinity matured MtxB) (Fab, V domains shown)
VH: B1 VH with M106I, D107L, V108D
VL: B3 VL with Y50Q, G51A, V53S, L54K, L92P
notes: as for B2
fIL5 Fab (ELISA absorbance) [1]: 0.748 absorbance
